3 substances from article PMC10583602 can be followed below.

In test [1] the target is TnsC with the apical loop E69-D75 deleted (Vibrio cholerae). As to the kind of experiment: SEC.
Test [2] has as its target TnsC(ΔA106–A113) (Vibrio cholerae). The experiment in a line: SEC.
For test [3], the target named is Vibrio cholerae TnsC (VchTnsC), full length, tag cleaved (Vibrio cholerae). The experiment in a line: SEC.
For test [4] the target is unchanged. As to the kind of experiment: cryo-EM structure.

“TnsC with the apical loop E69-D75 deleted (natural protein)”: the stoichiometry N in test [1] is 7.
As for TnsC(ΔA106–A113) (natural protein), the stoichiometry N in test [2] worked out at 7.
In the case of “Vibrio cholerae TnsC (VchTnsC), full length, tag cleaved (natural protein)”, the stoichiometry N in test [3] and in test [4] was 7 throughout.
